Laboratory results reported in paper PMC10164576, “Interaction with the carboxy-terminal tip of SSB is critical for RecG function in E. coli” (Nucleic Acids Research, 2023).
Where a SMILES comes first, the peptide text is derived from it. Where no end group is shown, it is not given here. The star is where a group is joined. 6FAM = O=C1OC2(c3ccc(O)cc3Oc3cc(O)ccc32)c2cc(C(=O)*)ccc21

What was measured:
RecG R474E = RecG R474E (Escherichia coli, UniProt P24230, R474E); experiment: Fluorescence anisotropy binding of 6-FAM-labelled SSB-Ct peptide to RecG R474E; parameters: species or system E. coli; conditions: 10 nM 6-FAM peptide, pH 7.6, 25°C, triplicate, read-out: FP K D
Source text: In vivo assembly mutagenesis ([78]) was used to introduce the R474E or R95A mutation into RecG overexpression plasmid pEAW111 to create variant overexpression plasmids pNJB3 and pEAW1324, respectively. RecG R474E or RecG R95A were expressed in STL2669/pT7pol26 and purified using the same purification scheme as wildtype RecG. The purified proteins appeared as single bands on SDS-PAGE gels and were quantified using monomer extinction coefficient ε280 nm = 5.022 × 10^4 M^−1 cm^−1. The RecG R95A preparation included a very weak nickase contaminant.
SSB peptides (sequences listed in Figure 2) were designed with an N-terminal tryptophan residue for quantification and N-terminal 6-FAM label (Genscript). […] Fluorescence polarization (FP) values were measured at 25°C using a Beacon 2000 Fluorescence Polarization System. Polarization values were normalized to the FP value measured at 0 nM RecG. […]
To more rigorously and quantitatively test the RecG HD2/SSB-Ct binding model, a RecG variant in which one of the putative SSB-binding residues is altered (RecG R474E) was purified and tested for binding to the SSB-Ct peptide and to full-length SSB in vitro. […] Binding was not detected in either titration (Figure 4C). […]

RecG (WT) = molecular target: T1, RecG (WT) (Escherichia coli, UniProt P24230); experiment: Fluorescence anisotropy binding of 6-FAM-labelled SSB peptides to wildtype RecG; parameters: species or system E. coli; conditions: read-out: FP K D; WT RecG; fluorescence anisotropy; 10 nM N-terminal 6-FAM peptide; 0.2 M potassium glutamate, 25 mM Tris-acetate pH 7.6, 10 mM magnesium acetate; 30 min at room temperature, read at 25°C; one site fit; triplicate
T1 construct: RecG was expressed in STL2669/pT7pol26 (a gift from Dr Susan Lovett, Brandeis University) with overexpression plasmid pEAW111; made in house; host or cells: E. coli STL2669/pT7pol26
Description: SSB peptides (sequences listed in Figure 2) were designed with an N-terminal tryptophan residue for quantification and N-terminal 6-FAM label (Genscript). RecG was incubated with 0.2 M potassium glutamate, 1 mM DTT, 0.1 μg/ml BSA, 1 × RecA buffer (25 mM Tris-acetate, pH 7.6, 5% w/v glycerol, 3 mM potassium glutamate, 10 mM magnesium acetate, 1 mM DTT), and 10 nM labeled peptide at room temperature for 30 min. Fluorescence polarization (FP) values were measured at 25°C using a Beacon 2000 Fluorescence Polarization System. Polarization values were normalized to the FP value measured at 0 nM RecG. Normalized FP was converted to normalized anisotropy. Experiments were performed in triplicate, and the data were fit to a one site binding model (, where X is ligand concentration, Y is normalized anisotropy, Bmax is the maximum anisotropy, and KD is the dissociation constant) using GraphPad Prism Software.
Figure 2. RecG binds directly and specifically to the SSB-Ct. (A) Fluorescence anisotropy binding isotherms for RecG binding to SSB-Ct (black), SSB113 (violet), SSBΔF (blue), or SSB IDL (green) peptides. Peptide sequences are listed in parentheses with * representing an N-terminal 6-FAM label. Anisotropy values are normalized to the reading at 0 μM RecG. […] (B–E) ITC analysis of RecG/SSB binding. Thermograms (top) and binding isotherms (bottom) of titrations of (B) full-length SSB, (C) SSB-Ct peptide, (D) SSBΔF or (E) SSBΔF peptide into RecG solutions.
Two models explaining how RecG interacts with SSB have been proposed - RecG could interact with the SSB-Ct ([29]) or RecG could interact with the IDL ([48],[49]). To begin testing each model, we used an equilibrium fluorescence anisotropy assay to measure RecG binding to fluorescently labeled SSB-Ct or IDL peptides (Figure 2). Titration of RecG with the SSB-Ct peptide led to an increase in fluorescence anisotropy, which occurs when protein binding slows the tumbling rate of a labeled peptide ([90]). […] KD values in the low micromolar range are typical for SSB/SIP complexes ([10],[12–14],[19],[23]). […]

AlkB protein = conditions: peptide identical to IDL residues 152–169; cited from earlier work
Source text: The IDL peptide that was used included residues 152–169 of SSB, which has two of the three PxxP motifs in E. coli SSB.

[1] = molecular target: SSB113 peptide, 6-FAM labelled (E. coli) (UniProt P0AGE0); experiment: fluorescence polarisation; RecG titrated against 10 nM 6-FAM peptide; 0.2 M potassium glutamate, 1 mM DTT, 0.1 μg/ml BSA, 1x RecA buffer (25 mM Tris-acetate pH 7.6, 5% glycerol, 10 mM magnesium acetate); 30 min at room temperature, read at 25°C; one site binding model, triplicate
SSB113 peptide, 6-FAM labelled (E. coli), sequence (P0AGE0 whole entry, looked up): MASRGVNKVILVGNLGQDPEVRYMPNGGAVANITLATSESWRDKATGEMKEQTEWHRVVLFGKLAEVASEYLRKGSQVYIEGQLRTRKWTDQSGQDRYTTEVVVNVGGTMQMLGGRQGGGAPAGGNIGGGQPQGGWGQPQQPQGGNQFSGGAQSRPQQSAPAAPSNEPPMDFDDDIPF

[2] = molecular target: SSBΔF peptide, 6-FAM labelled (E. coli); experiment: as above
[3] = molecular target: T2, RecG DNA helicase, wildtype (E. coli, UniProt P24230 1-693); experiment: as above; conditions: both partners purified
T2 construct: RecG DNA helicase, E. coli, expressed from overexpression plasmid pEAW111; No tag is mentioned; also called WT RecG; source: E. coli STL2669/pT7pol26 with pEAW111, purified (ammonium sulfate, DEAE, Source 15Q, Source 15S)
T2 sequence (looked up): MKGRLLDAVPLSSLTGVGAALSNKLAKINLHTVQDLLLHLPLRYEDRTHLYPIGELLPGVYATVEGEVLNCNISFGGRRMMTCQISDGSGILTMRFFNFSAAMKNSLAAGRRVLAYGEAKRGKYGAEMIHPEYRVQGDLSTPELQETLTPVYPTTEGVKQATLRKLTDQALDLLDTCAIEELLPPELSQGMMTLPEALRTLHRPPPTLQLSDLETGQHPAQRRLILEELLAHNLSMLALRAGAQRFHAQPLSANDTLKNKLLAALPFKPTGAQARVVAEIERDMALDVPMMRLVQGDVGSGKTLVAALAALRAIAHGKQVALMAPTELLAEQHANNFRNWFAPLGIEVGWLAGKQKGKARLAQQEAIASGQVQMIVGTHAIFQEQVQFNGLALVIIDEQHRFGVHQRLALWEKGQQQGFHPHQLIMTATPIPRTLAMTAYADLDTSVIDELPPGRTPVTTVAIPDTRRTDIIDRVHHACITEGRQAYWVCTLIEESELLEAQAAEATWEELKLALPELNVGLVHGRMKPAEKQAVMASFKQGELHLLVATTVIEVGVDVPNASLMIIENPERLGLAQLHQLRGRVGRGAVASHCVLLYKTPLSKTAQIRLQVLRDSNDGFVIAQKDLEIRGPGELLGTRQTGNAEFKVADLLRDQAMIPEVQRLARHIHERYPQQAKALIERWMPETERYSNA

RecG R95A = molecular target: T3, RecG R95A (E. coli, UniProt P24230 1-693, R95A); experiment: as above; conditions: both partners purified
T3 construct: RecG DNA helicase, E. coli, R95A introduced into pEAW111 to give pEAW1324; The preparation included a very weak nickase contaminant; source: E. coli STL2669/pT7pol26 with pEAW1324, purified (same scheme as wildtype RecG)
T3 sequence (looked up): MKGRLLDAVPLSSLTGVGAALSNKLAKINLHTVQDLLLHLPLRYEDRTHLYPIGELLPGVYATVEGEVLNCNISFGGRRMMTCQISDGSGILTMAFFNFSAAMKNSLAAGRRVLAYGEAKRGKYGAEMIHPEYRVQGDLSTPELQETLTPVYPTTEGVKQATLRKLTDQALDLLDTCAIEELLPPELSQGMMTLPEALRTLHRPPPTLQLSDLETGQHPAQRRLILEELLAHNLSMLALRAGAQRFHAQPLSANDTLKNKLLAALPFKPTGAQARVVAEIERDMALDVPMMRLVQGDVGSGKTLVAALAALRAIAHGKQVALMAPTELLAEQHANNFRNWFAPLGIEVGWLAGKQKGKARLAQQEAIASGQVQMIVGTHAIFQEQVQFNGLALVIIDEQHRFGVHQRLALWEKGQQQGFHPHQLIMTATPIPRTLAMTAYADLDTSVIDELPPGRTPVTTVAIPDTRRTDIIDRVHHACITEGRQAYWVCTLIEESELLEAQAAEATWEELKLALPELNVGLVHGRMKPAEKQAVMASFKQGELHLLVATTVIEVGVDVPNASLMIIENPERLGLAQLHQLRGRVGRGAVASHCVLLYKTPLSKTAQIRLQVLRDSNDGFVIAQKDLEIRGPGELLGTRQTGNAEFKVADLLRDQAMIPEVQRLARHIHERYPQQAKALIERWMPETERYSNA

Q: For WMDFDDDIPF [SSB-Ct peptide], which Kd (RecG R474E) is on record?
A: > 30 µM

Q: What does the source list for `C[C@H](NC(=O)[C@H](Cc1c[nH]c2ccccc12)NC(=O)c1ccc2c(c1)C1(OC2=O)c2ccc(O)cc2Oc2cc(O)ccc21)C(=O)N[C@@H](CCC(N)=O)C(=O)N[C@@H](CO)C(=O)N[C@@H](CCCNC(=N)N)C(=O)N1CCC[C@H]1C(=O)N[C@@H](CCC(N)=O)C(=O)N[C@@H](CCC(N)=O)C(=O)N[C@@H](CO)C(=O)N[C@@H](C)C(=O)N1CCC[C@H]1C(=O)N[C@@H](C)C(=O)N[C@@H](C)C(=O)N1CCC[C@H]1C(=O)N[C@@H](CO)C(=O)N[C@@H](CC(N)=O)C(=O)N[C@@H](CCC(=O)O)C(=O)N1CCC[C@H]1C(=O)O` [IDL 152–169 peptide] (6FAM-WAQSRPQQSAPAAPSNEP-OH; C-terminus assumed)?
A: Kd (RecG (WT)): > 30 µM; binding to AlkB, in words (AlkB protein): previously reported to bind to the AlkB protein

B1: RecG DNA helicase, wildtype (enzyme)
chain: MKGRLLDAVPLSSLTGVGAALSNKLAKINLHTVQDLLLHLPLRYEDRTHLYPIGELLPGVYATVEGEVLNCNISFGGRRMMTCQISDGSGILTMRFFNFSAAMKNSLAAGRRVLAYGEAKRGKYGAEMIHPEYRVQGDLSTPELQETLTPVYPTTEGVKQATLRKLTDQALDLLDTCAIEELLPPELSQGMMTLPEALRTLHRPPPTLQLSDLETGQHPAQRRLILEELLAHNLSMLALRAGAQRFHAQPLSANDTLKNKLLAALPFKPTGAQARVVAEIERDMALDVPMMRLVQGDVGSGKTLVAALAALRAIAHGKQVALMAPTELLAEQHANNFRNWFAPLGIEVGWLAGKQKGKARLAQQEAIASGQVQMIVGTHAIFQEQVQFNGLALVIIDEQHRFGVHQRLALWEKGQQQGFHPHQLIMTATPIPRTLAMTAYADLDTSVIDELPPGRTPVTTVAIPDTRRTDIIDRVHHACITEGRQAYWVCTLIEESELLEAQAAEATWEELKLALPELNVGLVHGRMKPAEKQAVMASFKQGELHLLVATTVIEVGVDVPNASLMIIENPERLGLAQLHQLRGRVGRGAVASHCVLLYKTPLSKTAQIRLQVLRDSNDGFVIAQKDLEIRGPGELLGTRQTGNAEFKVADLLRDQAMIPEVQRLARHIHERYPQQAKALIERWMPETERYSNA
Q: Which Kd [1] does the source give for B1 here?
A: 23 µM

Q: And the Kd [2]?
A: > 30 µM

B2: SSB-Ct peptide, 6-FAM labelled (peptide)
peptide: 6FAM-WMDFDDDIPF
notes: N-terminal tryptophan residue added for quantification; C-terminal tip of SSB, E. coli; also called fluorescently labeled SSB-Ct peptide; source: synthetic peptide (Genscript)
Q: For B2, which Kd [3] is on record?
A: 3.1 ± 0.4 µM

Q: And the Kd (RecG R95A)?
A: 1800 ± 400 nM
